Reference: US11795460B2, “Compositions and methods for TTR gene editing and treating ATTR amyloidosis” (Intellia Therapeutics, Inc., priority 2017, dated 2023)
Strand notation (5' to 3'): a small letter for the sugar, then the base; units joined by * are phosphorothioate-linked, units joined directly phosphodiester-linked; [ ] holds rarer units or linkages, { } end groups; capitals alone tell only the bases. m = 2'-O-methyl; r = 2'-OH (RNA)

B1: G000481: TTR sgRNA modified sequence, Human, SEQ ID No. 88; guide sequence of CR003345 (nucleic acid)
guide: mU*mC*mU*rArGrArArCrUrUrUrGrArCrCrArUrCrArGrGrUrUrUrUrArGrAmGmCmUmAmGmAmAmAmUmAmGmCrArArGrUrUrArArArArUrArArGrGrCrUrArGrUrCrCrGrUrUrArUrCrAmAmCmUmUmGmAmAmAmAmAmGmUmGmGmCmAmCmCmGmAmGmUmCmGmGmUmGmCmU*mU*mU*mU
B2: G000489: TTR sgRNA modified sequence, Human, SEQ ID No. 96; guide sequence of CR003344 (nucleic acid)
guide: mU*mU*mU*rGrArCrCrArUrCrArGrArGrGrArCrArCrUrGrUrUrUrUrArGrAmGmCmUmAmGmAmAmAmUmAmGmCrArArGrUrUrArArArArUrArArGrGrCrUrArGrUrCrCrGrUrUrArUrCrAmAmCmUmUmGmAmAmAmAmAmGmUmGmGmCmAmCmCmGmAmGmUmCmGmGmUmGmCmU*mU*mU*mU
B3: G000488: TTR sgRNA modified sequence, Human, SEQ ID No. 95; guide sequence of CR003346 (nucleic acid)
guide: mA*mA*mA*rGrUrUrCrUrArGrArUrGrCrUrGrUrCrCrGrGrUrUrUrUrArGrAmGmCmUmAmGmAmAmAmUmAmGmCrArArGrUrUrArArArArUrArArGrGrCrUrArGrUrCrCrGrUrUrArUrCrAmAmCmUmUmGmAmAmAmAmAmGmUmGmGmCmAmCmCmGmAmGmUmCmGmGmUmGmCmU*mU*mU*mU
B4: G000482: TTR sgRNA modified sequence, Human, SEQ ID No. 89; guide sequence of CR003365 (nucleic acid)
guide: mU*mG*mU*rArGrArArGrGrGrArUrArUrArCrArArArGrGrUrUrUrUrArGrAmGmCmUmAmGmAmAmAmUmAmGmCrArArGrUrUrArArArArUrArArGrGrCrUrArGrUrCrCrGrUrUrArUrCrAmAmCmUmUmGmAmAmAmAmAmGmUmGmGmCmAmCmCmGmAmGmUmCmGmGmUmGmCmU*mU*mU*mU
B5: G000480: TTR sgRNA modified sequence, Human, SEQ ID No. 87; guide sequence of CR003353 (nucleic acid)
guide: mA*mA*mA*rGrGrCrUrGrCrUrGrArUrGrArCrArCrCrUrGrUrUrUrUrArGrAmGmCmUmAmGmAmAmAmUmAmGmCrArArGrUrUrArArArArUrArArGrGrCrUrArGrUrCrCrGrUrUrArUrCrAmAmCmUmUmGmAmAmAmAmAmGmUmGmGmCmAmCmCmGmAmGmUmCmGmGmUmGmCmU*mU*mU*mU

tested on: TTR; assay: TTR editing in primary human hepatocytes transfected with Spy Cas9 protein and sgRNAs (Table 12); format: cell-based; settings: primary human hepatocytes transfected with Spy Cas9 protein (RNP) and sgRNAs
Description: Primary liver hepatocytes. Primary human liver hepatocytes (PHH) and primary cynomolgus liver hepatocytes (PCH) (Gibco) were cultured per the manufacturer's protocol (Invitrogen, protocol 11.28.2012). In brief, the cells were thawed and resuspended in hepatocyte thawing medium with supplements (Gibco, Cat. CM7000) followed by centrifugation at 100 g for 10 minutes for human and 80 g for 4 minutes for cyno. The supernatant was discarded and the pelleted cells resuspended in hepatocyte plating medium plus supplement pack (Invitrogen, Cat. A1217601 and CM3000). Cells were counted and plated on Bio-coat collagen I coated 96-well plates (ThermoFisher, Cat. 877272) at a density of 33,000 cells/well for human or 60,000 cells/well for cyno (or 65,000 cells/well when assaying effects on TTR protein, described further below). Plated cells were allowed to settle and adhere for 6 or 24 hours in a tissue culture incubator at 37° C. and 5% CO2 atmosphere. After incubation cells were checked for monolayer formation and media was replaced with hepatocyte culture medium with serum-free supplement pack (Invitrogen, Cat. A1217601 and CM4000).
[…] formation was performed prior to electroporation or transfection of Spy Cas9 protein loaded with guide RNAs (RNPs) onto cells. For dual guide (dgRNAs), individual crRNA and trRNA was pre-annealed by mixing equivalent amounts of reagent and incubating at 95° C. for 2 min and cooling to room temperature. Single guide (sgRNAs) were boiled at 95° C. for 2 min and cooling to room temperature. The boiled dgRNA or sgRNA was incubated with Spy Cas9 protein in Optimem for 10 minutes at room temperature to form a ribonucleoprotein (RNP) complex.
For RNP lipoplex transfections, cells were transfected with Lipofectamine RNAiMAX (ThermoFisher, Cat. 13778150) per the manufacturer's protocol. Cells were transfected with an RNP containing Spy Cas9 (10 nM), individual guide (10 nM), tracer RNA (10 nM), Lipofectamine RNAiMAX (1.0 μL/well) and OptiMem. RNP formation was performed as described above.
Transfected cells were harvested post-transfection at 24, 48, or 72 hours. The genomic DNA was extracted from each well of a 96-well plate using 50 μL/well BuccalAmp DNA Extraction solution (Epicentre, Cat. QE09050) per manufacturer's protocol. All DNA samples were subjected to PCR and subsequent NGS analyses, as described herein.
To quantitatively determine the efficiency of editing at the target location in the genome, sequencing was utilized to identify the presence of insertions and deletions introduced by gene editing.
Primers were designed around the target site within the gene of interest (e.g. TTR), and the genomic area of interest was amplified.
Additional PCR was performed per the manufacturer's protocols (Illumina) to add chemistry for sequencing. The amplicons were sequenced on an Illumina MiSeq instrument. The reads were aligned to a reference genome (e.g., the human reference genome (hg38), the cynomologus reference genome (mf5), the rat reference genome (rn6), or the mouse reference genome (mm10)) after eliminating those having low quality scores. The resulting files containing the reads were mapped to the reference genome (BAM files), where reads that overlapped the target region of interest were selected and the number of wild type reads versus the number of reads which contain an insertion, substitution, or deletion was calculated.
The editing percentage (e.g., the “editing efficiency” or “percent editing” or “indel frequency”) is defined as the total number of sequence reads with insertions/deletions (“indels”) or substitutions over the total number of sequence reads, including wild type.
Guides in modified sgRNA format targeting human and/or cyno TTR were delivered to primary human hepatocytes and primary cyno hepatocytes as described in Example 1. […]

Compared with B1, B2 is lower in “Avg % Deletion” value: 19.43% for the first, 9.43% for the second.

First: B3
Second: B4
The “Avg % Deletion” value of the first is higher: 35.00% for the first, 10.10% for the second.

In the case of B5, the “Avg % Deletion” value is reported as 4.70%.

First: B1
Second: B2
The “Avg % Edit” value of the first is lower: 46.90% for the first, 60.17% for the second.

First: B3
Second: B4
The “Avg % Edit” value of the first is lower: 61.27% for the first, 66.67% for the second.

B5 was tested, and the “Avg % Edit” value was 81.80%.

Compared with B1, B2 is higher in “Avg % Insert” value: 27.77% for the first, 51.07% for the second.

First: B3
Second: B4
The “Avg % Insert” value of the first is lower: 26.30% for the first, 56.57% for the second.

B5 was tested, and the “Avg % Insert” value was 77.15%.

tested on: TTR; assay: EC50 and maximum editing in primary cyno hepatocytes treated with LNP formulated U-depleted Spy Cas9 mRNA and sgRNAs (Tables 20, 22); format: cell-based, cynomolgus monkey; design: key: % of sequence reads with indels or substitutions over total reads; settings: Table 20, LNP with U-depleted Spy Cas9 mRNA and human specific sgRNAs, dose response
Summary of the method: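 Primary cyno hepatocytes plated 24 h before treatment with cross-flow LNPs (PD-10 purified) carrying U-depleted Spy Cas9 mRNA and sgRNA, preincubated 5 min in maintenance medium with 6% cyno serum; 8-point 3-fold dose series from 300 ng mRNA. Cells lysed 72 h later; editing = indel/substitution reads over total reads by amplicon MiSeq sequencing.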

First: B1
Second: B2
The “Max Editing” value of the first is higher: 95.07 for the first, 89.21 for the second.

Going from B3 to B4, the “Max Editing” value rises from 21.63 to 97.47.

B5 was tested, and the “Max Editing” value was 20.32.

tested on: human TTR sequence; assay: Liver editing in humanized TTR mice dosed with LNP formulations (Table 26); format: in vivo, mouse; settings: 1, 0.3, 0.1, or 0.03 mg/kg, Cas9 mRNA (SEQ ID NO: 1) 1:1 by weight to guide, FIG. 26A

In the case of B2, the “Liver editing, dose response” value is reported as “A dose response for both editing and serum TTR levels was evident”.
In the case of B3, the “Liver editing, dose response” value is reported as “A dose response for both editing and serum TTR levels was evident”.
In the case of B5, the “Liver editing, dose response” value is reported as “A dose response for both editing and serum TTR levels was evident”.

same assay, conditions: 1, 0.3, or 0.1 mg/kg, Cas9 mRNA (SEQ ID NO: 1) 1:1 by weight to guide, FIG. 27A

For B1, the “Liver editing, dose response” value was “A dose response for both editing and serum TTR levels was evident”.
With B4 the “Liver editing, dose response” value was “A dose response for both editing and serum TTR levels was evident”.

same assay, conditions: 1, 0.3, or 0.1 mg/kg, Cas9 mRNA (SEQ ID NO: 1) 1:2 by weight to guide, FIG. 28A

With B1 the “Liver editing, dose response” value was “A dose response for both editing and serum TTR levels was evident”.
With B5 the “Liver editing, dose response” value was “A dose response for both editing and serum TTR levels was evident”.

tested on: TTR; assay: EC50 and maximum editing in primary human hepatocytes treated with LNP formulated U-depleted Spy Cas9 mRNA and sgRNAs (Tables 19, 21); format: cell-based; design: key: % of sequence reads with indels or substitutions over total reads; settings: Table 19, LNP with U-depleted Spy Cas9 mRNA and human specific sgRNAs, dose response
Summary of the method: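 Primary human hepatocytes, plated 24 h, received LNPs carrying Cas9 mRNA plus TTR sgRNA, preincubated 5 min in media with 6% cyno serum, in an 8-point 3-fold series starting at 300 ng mRNA; lysed 72 h later; editing determined as indel/substitution read fraction by amplicon MiSeq sequencing.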

First: B1
Second: B2
The “Max Editing” value of the first is higher: 87.05 for the first, 86.33 for the second.

Compared with B3, B4 is higher in “Max Editing” value: 95.83 for the first, 97.02 for the second.

In the case of B5, the “Max Editing” value is reported as 98.69.
